In patent publication US20250313634A1 (WUXI BIOLOGICS SHANGHAI, published 2025):

Tests used:
murine PD-L1 = biological target: T1, murine PD-L1 (mouse, UniProt Q9EP73 19-238, limits assumed); test: ELISA, murine PD-L1 coated on the plate, goat anti-human IgG Fc-HRP; antibody concentration not shown
T1 construct: also called mouse PD-L1 (coated on ELISA plates)
Protocol: 3.7 Cross-species binding assay: the cross-reactivity of the Ab to cynomolgus and murine PD-L1 was measured by ELISA. Human, cyno and mouse PD-L1 were coated on ELISA plates, respectively. After blocking, fully human antibodies were added into the plate and incubated at room temperature for at least 2 hours. The binding of the antibodies to the coated antigens was detected by using goat anti-human IgG Fc-HRP. The color reaction was developed using TMB substrate and stopped by 2M HCl. The ELISA plates were analyzed at 450 nm using a Molecular Device M5e microplate reader.

[1] = biological target: T2, PD-L2 expressed on transfected CHO cells (Homo sapiens (Human), UniProt Q9BQ51 20-273); test: FACS on PD-L2 transfected CHO-K1 cells, single bar, antibody concentration not shown
T2 construct: also called PD-L2 of PD-1 ligand family
T2 sequence: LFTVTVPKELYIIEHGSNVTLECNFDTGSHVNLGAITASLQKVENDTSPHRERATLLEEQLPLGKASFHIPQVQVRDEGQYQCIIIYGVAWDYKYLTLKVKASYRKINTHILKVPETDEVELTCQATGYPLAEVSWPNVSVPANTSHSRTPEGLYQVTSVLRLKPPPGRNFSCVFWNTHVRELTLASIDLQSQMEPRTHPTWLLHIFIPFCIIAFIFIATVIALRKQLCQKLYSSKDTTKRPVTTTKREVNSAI
Protocol: 3.8 Cross-family binding assay by FACS: to examine the cross-family binding activity of the fully human antibodies, cells lines that express PD-L2 were stained with the fully human antibodies, followed by 2nd antibody staining with FITC conjugated goat anti-human IgG Fc. PD-L1 expressing cells were used as positive control. Corresponding parental cell lines were used as negative controls. The stained cells were analyzed by using a BD Biosciences FACSCanto II and FlowJo Version software.
CHO cells transfected with PD-L1 or PD-L2 were stained with fully human PD-L1 antibodies and analysis by FACS.

recombinant human PD-L1 = biological target: T3, recombinant human PD-L1 (human, UniProt Q9NZQ7 19-238, limits assumed); test: surface plasmon resonance per legend paragraph 39 and paragraph 188; column Best fit-KD, mol/L from the legend
T3 construct: Used for the SPR analyte (3.2) and for the plate-coated human PD-L1 of the cross-species ELISA (3.7); also called human PD-L1 (SPR analyte); Human PD-L1 coated on ELISA plates
T3 sequence (Q9NZQ7 19-238 limits assumed): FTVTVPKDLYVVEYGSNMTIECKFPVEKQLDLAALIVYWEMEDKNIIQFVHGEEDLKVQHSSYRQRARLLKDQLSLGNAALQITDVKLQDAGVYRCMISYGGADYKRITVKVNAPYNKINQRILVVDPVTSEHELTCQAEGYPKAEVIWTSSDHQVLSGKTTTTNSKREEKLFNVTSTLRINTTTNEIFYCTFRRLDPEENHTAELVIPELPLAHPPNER
From the text: 3.2 Affinity test by surface plasmon resonance (SPR): Antibodies were characterized for affinity and binding kinetics to PD-L1 by SPR assay using ProteOn XPR36 (Bio-Rad). Protein A protein (Sigma) was immobilized to a GLM sensor chip (Bio-Rad) through amine coupling. Purified antibodies were flowed over the sensor chip and captured by the Protein A. The chip was rotated […] and washed with running buffer (1×PBS/0.01% Tween20, Bio-Rad) until the baseline is stable. Five concentrations of human PD-L1 and running buffer were flowed against the antibody flow cell at a flow rate 100 μL/min for an association phase of 240s, followed by 600s dissociation. The chip was regenerated with pH 1.7 H₃PO₄ after each run. The association and dissociation curve was fit to a 1:1 Langmiur binding model using ProteOn software.

[2] = biological target: T4, full-length human PD-L1 expressed on CHO cells (human, UniProt Q9NZQ7 19-290); test: FACS competition: blocking of mouse Fc-tagged human PD-1 binding to CHO cells expressing human PD-L1
T4 construct: whole, on cells; also called CHO-K1 cells expressing human PD-L1; PD-L1 transfected CHO cells
T4 sequence (Q9NZQ7 19-290): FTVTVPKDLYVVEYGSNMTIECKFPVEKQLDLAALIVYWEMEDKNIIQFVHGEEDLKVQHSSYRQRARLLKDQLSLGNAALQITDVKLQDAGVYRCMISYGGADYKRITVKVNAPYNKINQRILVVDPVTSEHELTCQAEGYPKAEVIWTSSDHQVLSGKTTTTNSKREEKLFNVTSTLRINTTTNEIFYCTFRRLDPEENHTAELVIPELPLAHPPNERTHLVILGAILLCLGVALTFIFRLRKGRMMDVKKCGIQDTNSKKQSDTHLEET
Protocol: (§1) 3.1 Competition assay by FACS: to examine whether the fully human antibodies can block the binding of PD-L1 to PD-1, the CHO-K1 cells expressing human PD-L1 were incubated with various concentrations of the fully human antibodies at 4° C. for 1 hour. The unbound antibodies were washed away, and then the mouse Fc-tagged human PD-1 was added to the cells. The binding of human PD-1 to PD-L1 expressing cell was detected by using FITC-conjugated goat anti-mouse IgG, followed by the analysis using a BD Biosciences FACSCanto II and FlowJo Version software.
(§2) Then the mouse Fc-tagged human PD-1 was added to the cells. The binding of human PD-1 to PD-L1 expressing cell was detected by using FITC-conjugated goat anti-mouse IgG, followed by the FACS analysis.

[3] = biological target: T4, full-length human PD-L1 expressed on …; test: FACS on CHO cells transfected with full-length human PD-L1
[4] = biological target: T4, full-length human PD-L1 expressed on …; test: FACS competition on CHO cells expressing human PD-L1; competitor mouse Fc-tagged human PD-1
Protocol: as §1, §2

[5] = biological target: T5, mouse PD-L1_ECD.His protein (mouse, UniProt Q9EP73 19-239); test: ELISA, 2 ug/ml 1.14.4 coated on the plate, mPD-L1-His protein titrated, HRP-anti-His detection
T5 construct: extracellular domain; Bought (Sino Biological, China); also called mPD-L1-His protein
T5 sequence (Q9EP73 19-239): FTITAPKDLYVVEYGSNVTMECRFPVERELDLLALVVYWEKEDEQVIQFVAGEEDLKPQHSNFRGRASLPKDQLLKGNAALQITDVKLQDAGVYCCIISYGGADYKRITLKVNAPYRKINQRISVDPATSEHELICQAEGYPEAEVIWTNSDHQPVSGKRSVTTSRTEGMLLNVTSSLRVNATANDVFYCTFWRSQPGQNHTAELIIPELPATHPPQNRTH

T1 sequence (Q9EP73 19-238 limits assumed): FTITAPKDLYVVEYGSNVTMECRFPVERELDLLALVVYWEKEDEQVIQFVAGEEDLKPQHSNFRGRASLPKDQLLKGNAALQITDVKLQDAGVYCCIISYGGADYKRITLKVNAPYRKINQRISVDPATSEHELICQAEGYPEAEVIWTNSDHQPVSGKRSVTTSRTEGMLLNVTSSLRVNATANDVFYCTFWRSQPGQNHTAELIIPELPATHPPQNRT

B1: 1.14.4 (antibody, V domains shown)
VH: EVQLLESGGGLVQPGGSLRLSCAASGFTFSSYAMSWVRQAPGKGLEWVSGISGSGGFTYYADSVKGRFTISRDNSKNTLYLQMNSLRAEDTAVYYCAKPPRGYNYGPFDYWGQGTLVTVSS
VL: SYVLTQPPSVSVAPGQTARITCGGNNIGSKSVHWYQQKPGQAPVLVVYDDSDRPSGIPERFSGSNSGNTATLTISRVEAGDEADYYCQVWDSSSDHVVFGGGTKLTVL
notes: Fully human monoclonal antibody with a human constant region of IgG4 isotype
**Q.** Does B1 bind (murine PD-L1)?
**A.** no binding

**Q.** Does B1 bind [1]?
**A.** no binding

**Q.** And the Kd (recombinant human PD-L1)?
**A.** 0.392 nM

**Q.** What about the “IC50 (read off the curve)” value [2] of the same binder?
**A.** ~2 nM

**Q.** And the “EC50 (read off the curve)” value [3]?
**A.** ~1 nM

**Q.** And the IC50 [4]?
**A.** ~10 nM

**Q.** Does B1 bind [5]?
**A.** no binding
